Assay results taken from article PMC2834481.
pKd: −log10 of the molar value.

Molecular target: squid Munc18-1 (squid)
Assay: ITC

Row | Substance | pKd
1 | synaptobrevin(49-96) (from UniProt P63045 49-96) (domain or fragment) | 4.88
2 | synaptobrevin(77-96) peptide (from UniProt P63045 77-96) | 4.87
